Measurements as given in the supplement of paper PMC7877785.
± gives the uncertainty stated by the source.

Test: self-splicing fitness, log relative to wild type (ln ratio); higher = more splicing; Tetrahymena group I intron in knt gene, E. coli kanamycin selection, DiMSum; sequences stand for … in CUCUCU…GGAGGGAAAAGUUAUCAGGCAUGCACCUGGUAGCUAGUCUUUAAACCAAUAGAUUGCAUCGGUUUAAAAGGCAAGACCGUCAAAUUGCGGGAAAGGGGUCAACAGCCGUUCAGUACCAAGUCUCAGGGGAAACUUUGAGAUGGCCUUGCAAAGGGUAUGGUAAUAAGCUGACGGACAUGGUCCUAACCACGCAGCCAAGUCCUAAGUCAACAGAUCUUCUGUUGAUAUGGAUGCAGUUCACAGACUAAAUGUCGGUCGGGGAAGAUGUAUUCUUCUCAUAAGAUAUAGUCGGACCUCUCCUUAAUGGGAGCUAGCGGAUGAAGUGAUGCAACACUGGAGCCGCUGGGAACUAAUUUGUAUGCGAAAGUAUAUUGAUUAGUUUUGGAGUACUCGUGGUCG
In short: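 Fitness was computed with DiMSum as the error-weighted combination of replicate fold changes, kanamycin versus none, each normalised to wild type. The library randomised all eight intron nucleotides of the P1ex region, with the intron placed in the knt kanamycin-resistance gene on pET-22b(+) in E. coli BL21(DE3). Six replicate transformations were grown overnight at 37°C or 30°C on LB agar with or without 25 μg/mL kanamycin, plus 100 μg/mL carbenicillin, 50 μM IPTG and 0.2% rhamnose. Pooled colonies were amplicon-sequenced on an Illumina HiSeq 2500.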

Sequence	self-splicing fitness (ln) (30 °C)	self-splicing fitness (ln) (37 °C)
CCUGAGCAAUAUUACGUGAA	-4.54 ± 0.34	-2.83 ± 0.21
GUUGAGCAAUAUUACGGAGA	-2.47 ± 0.45	-1.8 ± 0.35
AUUCAGCAAUAUUACGGAAG	-1.02 ± 0.096	-0.0127 ± 0.11
AACCAGCAAUAUUACGUUGG	-3.14 ± 0.12	-2.42 ± 0.13
CGGCAGCAAUAUUACGGUGC	-2.88 ± 0.16	-2.18 ± 0.19
UUGAAGCAAUAUUACGCAUU	-3.34 ± 0.23	-3.18 ± 0.25
ACCAAGCAAUAUUACGUUUG	-4.33 ± 0.16	-2.43 ± 0.14
ACCAAGCAAUAUUACGUAUC	-3.4 ± 0.1	-2.34 ± 0.11
CCUGAGCAAUAUUACGACGG	-3.06 ± 0.25	-2.59 ± 0.48
AUUUAGCAAUAUUACGCAGG	-3.36 ± 0.38	
UUAAAGCAAUAUUACGAGUA	-1.08 ± 0.096	-0.715 ± 0.11
GUGCAGCAAUAUUACGGUGG	-1.63 ± 0.11	-1.16 ± 0.13
UUUGAGCAAUAUUACGUAGC	-1.83 ± 0.32	
GAUCAGCAAUAUUACGACAG	-3.24 ± 0.23	-1.49 ± 0.28
UGGCAGCAAUAUUACGAUCG	0.335 ± 0.067	1.02 ± 0.1
AGUAAGCAAUAUUACGGGCA	-0.89 ± 0.15	-0.468 ± 0.19
GAGGAGCAAUAUUACGAUCC	-1.49 ± 0.31	-1.12 ± 0.27
UUAUAGCAAUAUUACGGAGC		-2.95 ± 0.43
AUCGAGCAAUAUUACGGGCU	-4.05 ± 0.23	-2.94 ± 0.26
UACUAGCAAUAUUACGGAGA	-2.59 ± 0.17	-1.84 ± 0.16
GCCCAGCAAUAUUACGACAU	-1.515 ± 0.012	-0.82 ± 0.032
CAAGAGCAAUAUUACGGGAA	-2.06 ± 0.11	-3.01 ± 0.18
ACUUAGCAAUAUUACGGGGC	-3.2 ± 0.18	-2.55 ± 0.23
UCCUAGCAAUAUUACGCUUG	-3.79 ± 0.21	-2.46 ± 0.17
AAGUAGCAAUAUUACGCACG	-1.5 ± 0.13	0.587 ± 0.13

Sequence	self-splicing fitness (ln) (30 °C)	self-splicing fitness (ln) (37 °C)
UACGAGCAAUAUUACGGAUC	-3.56 ± 0.4	-2.63 ± 0.37
GUGAAGCAAUAUUACGCGCA	-0.00454 ± 0.099	0.509 ± 0.13
GCCGAGCAAUAUUACGGUAU	-1.89 ± 0.13	-0.878 ± 0.12
CGCAAGCAAUAUUACGUAGG	-1.24 ± 0.057	-0.509 ± 0.075
CAUAAGCAAUAUUACGGCCA	-2.38 ± 0.26	-2.62 ± 0.29
GUACAGCAAUAUUACGUCCG	-3.2 ± 0.23	-1.74 ± 0.17
UAACAGCAAUAUUACGGAAC	-3.85 ± 0.24	-4.18 ± 0.39
CCCAAGCAAUAUUACGGAUG	-3.07 ± 0.1	-2.49 ± 0.11
CUAUAGCAAUAUUACGCUGA	-2.84 ± 0.24	-2.32 ± 0.29
AUGCAGCAAUAUUACGGUGG	-3.96 ± 0.18	-1.86 ± 0.12
UAGGAGCAAUAUUACGAAUC		-2.02 ± 0.26
GAGAAGCAAUAUUACGGCCU	-0.28 ± 0.07	0.2 ± 0.089
AUUCAGCAAUAUUACGGAUU	-4.2 ± 0.22	-2.21 ± 0.2
CUGGAGCAAUAUUACGGUUG	-1.87 ± 0.081	-1.11 ± 0.095
ACAUAGCAAUAUUACGCUCU	-0.768 ± 0.084	-0.2 ± 0.12
GACAAGCAAUAUUACGGAUC	-1.19 ± 0.13	-0.182 ± 0.15
UUCUAGCAAUAUUACGCACA	-0.654 ± 0.27	-0.205 ± 0.23
CCAUAGCAAUAUUACGGACG	-1.47 ± 0.11	-1.21 ± 0.14
ACUCAGCAAUAUUACGACCA	-1.19 ± 0.084	-0.64 ± 0.12
CCCAAGCAAUAUUACGCCGA	-2.01 ± 0.32	
UCUCAGCAAUAUUACGACUC	-3.38 ± 0.38	-2.02 ± 0.33
AAUGAGCAAUAUUACGGUCA	-1.92 ± 0.28	-1.45 ± 0.36
AAAAAGCAAUAUUACGAAUC	-2.31 ± 0.21	-2.21 ± 0.23
CACAAGCAAUAUUACGCCGG	-0.875 ± 0.081	-0.35 ± 0.095
UGCAAGCAAUAUUACGGCGU	-1.24 ± 0.071	-0.6 ± 0.091

Sequence	self-splicing fitness (ln) (30 °C)	self-splicing fitness (ln) (37 °C)
UCAUAGCAAUAUUACGCACG	-2.05 ± 0.11	-0.462 ± 0.13
CCCGAGCAAUAUUACGUUCC	-2.86 ± 0.4	
UAACAGCAAUAUUACGUCGA	-1.03 ± 0.12	0.186 ± 0.098
GGCCAGCAAUAUUACGAAAG	-4.21 ± 0.37	-2.71 ± 0.41
AUUUAGCAAUAUUACGUAAA	-2.28 ± 0.21	-1.09 ± 0.18
CUGGAGCAAUAUUACGUAUU	-3.84 ± 0.31	-2.09 ± 0.27
AGGGAGCAAUAUUACGGAAC	-3.01 ± 0.38	-2.68 ± 0.41
CGUGAGCAAUAUUACGAAUG	-1.41 ± 0.16	-0.913 ± 0.13
CUCUAGCAAUAUUACGUUAU	-3.92 ± 0.4	-2.16 ± 0.25
GUGAAGCAAUAUUACGGGAU	-1.1 ± 0.07	-0.971 ± 0.093
AGUUAGCAAUAUUACGCGGU	-2.58 ± 0.14	-1.93 ± 0.18
CUGCAGCAAUAUUACGUUCG	-0.733 ± 0.074	-0.62 ± 0.095
AUGCAGCAAUAUUACGGGAG	-3.13 ± 0.17	-2.11 ± 0.13
GUCGAGCAAUAUUACGGAAC	-3.01 ± 0.19	-1.9 ± 0.2
GAUCAGCAAUAUUACGCAUG	-0.141 ± 0.095	0.865 ± 0.14
AUGAAGCAAUAUUACGCCAG	-0.726 ± 0.13	0.273 ± 0.18
CGCUAGCAAUAUUACGAUCU	-0.867 ± 0.1	-1.49 ± 0.11
AUCUAGCAAUAUUACGUGAU	-1.16 ± 0.14	-2.25 ± 0.32
GAUUAGCAAUAUUACGUUAG	-2.09 ± 0.32	-2.4 ± 0.45
AUUUAGCAAUAUUACGUGAU	-0.978 ± 0.12	-0.863 ± 0.12
GGAAAGCAAUAUUACGAAAC	-1.37 ± 0.13	-0.659 ± 0.17
CGAUAGCAAUAUUACGGUUA	-0.777 ± 0.17	-0.253 ± 0.13
GCACAGCAAUAUUACGCAAU	-1.14 ± 0.1	-0.864 ± 0.087
CCGUAGCAAUAUUACGGUCG	-0.844 ± 0.074	-0.447 ± 0.095
CAGAAGCAAUAUUACGCAGC	-3.43 ± 0.23	-2.35 ± 0.24

Sequence	self-splicing fitness (ln) (30 °C)	self-splicing fitness (ln) (37 °C)
CGCUAGCAAUAUUACGACAC	-3.1 ± 0.23	-1.33 ± 0.21
AUAAAGCAAUAUUACGGGUU	-2.17 ± 0.09	-1.17 ± 0.098
AAUAAGCAAUAUUACGCCUA	0.0474 ± 0.09	-0.183 ± 0.098
CCGGAGCAAUAUUACGUCUG	-1.22 ± 0.14	-0.402 ± 0.16
GCCCAGCAAUAUUACGCUGU	-0.516 ± 0.063	-0.482 ± 0.092
UUAAAGCAAUAUUACGUUUC	-3.92 ± 0.39	-1.18 ± 0.31
UUACAGCAAUAUUACGAACG	-0.834 ± 0.1	-0.112 ± 0.13
CCCCAGCAAUAUUACGGAUU	-4.3 ± 0.16	-2.37 ± 0.13
GUUUAGCAAUAUUACGCAAG	-2.45 ± 0.18	-0.942 ± 0.17
AAUAAGCAAUAUUACGGUGC	-3 ± 0.15	-2.26 ± 0.23
GGUAAGCAAUAUUACGAGCU	-3.03 ± 0.35	-1.36 ± 0.25
CUAGAGCAAUAUUACGCCGG		-0.534 ± 0.29
GGGAAGCAAUAUUACGACUC	-1.17 ± 0.1	-0.341 ± 0.13
UUUUAGCAAUAUUACGGUCU	-2.23 ± 0.17	-1.35 ± 0.2
AUGUAGCAAUAUUACGAAGC	-3.22 ± 0.37	0.239 ± 0.23
ACGUAGCAAUAUUACGACGA	0.179 ± 0.11	-0.0557 ± 0.12
UCCGAGCAAUAUUACGCCGG	-2.87 ± 0.36	-2.15 ± 0.28
CCCUAGCAAUAUUACGCAUG	-2.33 ± 0.14	-2.73 ± 0.2
AAUGAGCAAUAUUACGUCGC	-3.95 ± 0.29	-2.79 ± 0.32
UGAAAGCAAUAUUACGGAAA	-1.83 ± 0.18	-1.29 ± 0.17
ACAUAGCAAUAUUACGCCCU	-0.862 ± 0.083	-0.134 ± 0.1
CAUCAGCAAUAUUACGUGCU	-3.71 ± 0.28	-2.46 ± 0.21
